Measurements reported in publication PMC10883268.

Experiments:
[1] = molecular target: SecY_(A103C-V353C)EG (E. coli) (UniProt P0AGA2)
[2] = molecular target: SecY_(A103C-V353C)EG (E. coli) (UniProt P0AGA2); remark: listed apart in the source

Chain of SecA (P10408 whole entry): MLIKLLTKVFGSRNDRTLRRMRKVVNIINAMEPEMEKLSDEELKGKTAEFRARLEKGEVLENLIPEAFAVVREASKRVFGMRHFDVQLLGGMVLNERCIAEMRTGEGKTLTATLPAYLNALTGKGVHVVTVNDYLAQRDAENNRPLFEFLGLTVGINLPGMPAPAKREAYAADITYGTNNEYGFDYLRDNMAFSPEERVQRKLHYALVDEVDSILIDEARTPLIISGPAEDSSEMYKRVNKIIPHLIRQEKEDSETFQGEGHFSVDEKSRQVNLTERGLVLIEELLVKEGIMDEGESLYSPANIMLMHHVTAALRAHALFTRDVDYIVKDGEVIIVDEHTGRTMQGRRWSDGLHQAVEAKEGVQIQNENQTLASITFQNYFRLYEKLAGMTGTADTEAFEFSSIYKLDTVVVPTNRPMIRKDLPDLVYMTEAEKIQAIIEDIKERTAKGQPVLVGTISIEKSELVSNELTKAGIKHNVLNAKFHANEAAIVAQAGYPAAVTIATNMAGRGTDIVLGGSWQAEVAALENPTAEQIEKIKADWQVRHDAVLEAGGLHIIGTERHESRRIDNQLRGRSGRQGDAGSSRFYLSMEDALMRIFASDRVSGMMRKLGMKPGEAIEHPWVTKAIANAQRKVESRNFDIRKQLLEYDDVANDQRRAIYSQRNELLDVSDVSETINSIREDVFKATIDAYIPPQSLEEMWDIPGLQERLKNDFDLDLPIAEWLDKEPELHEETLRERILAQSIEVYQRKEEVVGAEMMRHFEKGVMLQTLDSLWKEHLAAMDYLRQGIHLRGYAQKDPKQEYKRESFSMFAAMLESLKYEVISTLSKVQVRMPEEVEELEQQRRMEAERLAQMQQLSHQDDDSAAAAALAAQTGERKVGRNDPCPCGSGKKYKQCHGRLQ

smFRET between dyes on SecY C103 and C353 in proteoliposomes: balance of open and closed states with 1 µM SecA, no nucleotide, no SS, against SecYEG alone [1]: 2 fold | smFRET between dyes on SecY C103 and C353 in proteoliposomes: percent of time in the closed state with SecA, no nucleotide (~81% for SecYEG alone) [2]: > 91%
Substance: SecA (from UniProt P10408 1-901) (enzyme)
